Reference: patent US20230192842A1 (published 2023)

Assays:
[1] = biological target: T1, human CLDN3 N38A mutant on RKO KO cells (human, UniProt O15551 1-220); experiment: flow cytometry, % 906-mAb-PE positive of live cells
T1 construct: Single-point alanine mutant, monoclonal RKO KO line with GFP
T1 chain: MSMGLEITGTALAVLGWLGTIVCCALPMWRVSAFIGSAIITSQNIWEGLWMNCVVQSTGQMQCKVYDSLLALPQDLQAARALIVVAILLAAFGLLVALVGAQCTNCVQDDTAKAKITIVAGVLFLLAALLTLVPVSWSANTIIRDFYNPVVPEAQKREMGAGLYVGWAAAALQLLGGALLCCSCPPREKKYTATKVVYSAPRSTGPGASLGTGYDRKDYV
Protocol: (§1) Flow cytometry. RKO KO target cells were seeded for flow cytometry as described in previous sections. Wells were topped up with flow buffer (PBS+2% FBS+2 mM EDTA+0.05% sodium azide) and plates were centrifuged at 300×g for 5 minutes. Supernatant was flicked off, cells were resuspended in 150 uL flow buffer. Plate was centrifuged at 300×g for 5 minutes. Supernatant was flicked off and cells were resuspended in 50 uL IgG block at 1:100 for 10 minutes at RT. Following incubation, plate was washed twice as above. Cells were resuspended in 50 uL of diluted antibodies (all a 1 in 300 dilution) in flow buffer, or flow buffer alone (unstained control). Cells were incubated for 30 minutes at RT. After incubation, plates were washed twice with 150 uL flow buffer. […]
(§2) Data Analysis: Flow Cytometry. Flow cytometry data was analysed using FLOWJO and further analysed in Microsoft excel and RStudio. […] Statistics for % PE-positive cells (as % of live cells) and Median Fluorescence Intensity (MFI) were calculated in FLOWJO and exported to Microsoft Excel for further analysis. […] Briefly, MFI was log 10 transformed and a mixed model was used with a fixed effect for cell line and a random effect for Plate, whilst % Parent was analysed on a linear scale in a mixed model with a fixed effect for cell line and a random effect for plate.

[2] = biological target: T2, human CLDN3 E153A mutant on RKO KO cells (human, UniProt O15551 1-220); experiment: as above
T2 construct: Single-point alanine mutant, monoclonal RKO KO line with GFP
T2 chain: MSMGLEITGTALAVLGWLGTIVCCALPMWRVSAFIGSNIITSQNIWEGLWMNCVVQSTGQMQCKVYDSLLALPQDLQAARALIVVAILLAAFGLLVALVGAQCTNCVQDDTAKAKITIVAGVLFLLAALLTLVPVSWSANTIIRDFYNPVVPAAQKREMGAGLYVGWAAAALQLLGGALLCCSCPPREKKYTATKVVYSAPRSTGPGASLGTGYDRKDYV
Protocol: as §1, §2

[3] = biological target: human CLDN3 P149A mutant on RKO KO cells (human) (UniProt O15551); experiment: flow cytometry, 906-mAb-PE on RKO KO cells expressing the mutant
[4] = biological target: human CLDN3 Q43A mutant on RKO KO cells (human) (UniProt O15551); experiment: as above
[5] = biological target: human CLDN3 F34A mutant on RKO KO cells (human) (UniProt O15551); experiment: as above
[6] = biological target: T1, human CLDN3 N38A mutant on RKO KO cells; experiment: as above
Protocol: as §1, §2

[7] = biological target: T2, human CLDN3 E153A mutant on RKO KO cells; experiment: as above
Protocol: as §1, §2

Chain of human CLDN3 P149A mutant on RKO KO cells (human) (O15551 whole entry P149A): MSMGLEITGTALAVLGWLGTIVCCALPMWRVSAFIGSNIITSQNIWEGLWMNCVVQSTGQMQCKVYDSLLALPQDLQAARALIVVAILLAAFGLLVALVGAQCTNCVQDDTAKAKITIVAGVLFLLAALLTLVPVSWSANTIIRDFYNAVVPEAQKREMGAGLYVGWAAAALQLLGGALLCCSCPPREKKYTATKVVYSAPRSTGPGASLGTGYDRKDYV
Chain of human CLDN3 F34A mutant on RKO KO cells (human) (O15551 whole entry F34A): as the sequence (O15551 whole entry P149A) above, with F34A, A149P counted along it
Chain of human CLDN3 Q43A mutant on RKO KO cells (human) (O15551 whole entry Q43A): as the sequence (O15551 whole entry P149A) above, with Q43A, A149P counted along it

Change in % Parent (906-mAb-PE positive cells) vs CLDN3 WT [1]: -99.2%
Change in % Parent (906-mAb-PE positive cells) vs CLDN3 WT [2]: -94.5%
fold change MFI vs CLDN3 WT (fold vs CLDN3 WT) [3]: 2.03
fold change MFI vs CLDN3 WT (fold vs CLDN3 WT) [4]: 2.68
fold change MFI vs CLDN3 WT (fold vs CLDN3 WT) [5]: 0.4
fold change MFI vs CLDN3 WT [6]: 0.01 fold vs CLDN3 WT
fold change MFI vs CLDN3 WT [7]: 0.01 fold vs CLDN3 WT
B1: 906-mAb (anti-CLDN3 906-mAb, monoclonal antibody version of the scFv of 906-009_LNGFR) (antibody, V domains shown)
VH: QVQLVQSGAEVKKPGSSVKVSCKASGYTFTNYWVHWVRQAPGQGLEWMGRIEPNSSGSQYNEKFKNRVTITADKSTSTAYMELSSLRSEDTAVYYCARGVMVPLDYWGQGTLVTVSS
VL: DIQMTQSPSSLSASVGDRVTITCKASQDINRYIAWYQQKPGKAPKLLIHYTSTLQPGVPSRFSGSGSGTDFTLTISSLQPEDFATYYCLQYETLYSFGQGTKLEIK
